3 molecules from US20230374147A1 (HUMMINGBIRD BIOSCIENCE PTE, published 2023) can be followed below.

Positions count from the first letter of the chain named. Where two headings read alike, the source gives them in different places.

The target in assay [1] is T1, human BCMA expressed on cells (human, UniProt Q02223 1-184).
T1 construct: the cell line is named under assay; also called wildtype human BCMA
T1 sequence: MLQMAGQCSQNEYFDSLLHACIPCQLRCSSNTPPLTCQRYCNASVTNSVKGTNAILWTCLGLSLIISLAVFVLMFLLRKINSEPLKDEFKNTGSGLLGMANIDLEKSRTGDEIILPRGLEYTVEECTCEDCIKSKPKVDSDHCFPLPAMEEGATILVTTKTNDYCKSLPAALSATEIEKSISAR
Kind of assay: flow cytometry, H929 cells (BCMA-expressing).

Assay [2] has as its target T2, His-tagged human BCMA (Acro Biosystems, Cat. #BCA-H522y) (human, UniProt Q02223 1-54).
T2 construct: also called huBCMA; P1; not shown: His tag
T2 sequence: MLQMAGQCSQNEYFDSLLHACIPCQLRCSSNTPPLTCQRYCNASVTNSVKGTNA
The experiment in a line: BLI, His-tagged human BCMA on HIS1K tip, no APRIL; R2 0.9901. Background: In BLI a coated tip is dipped into the sample, and binding shifts an interference pattern.

For assay [3], the target named is T3, His-tagged cynomolgous macaque BCMA (Acro Biosystems, BCA-C52H7) (cynomolgus macaque, UniProt Q02223 1-54 (human entry)).
T3 construct: Bought protein; also called cyno BCMA; CyBCMA; not shown: His tag
The experiment in a line: BLI, His-tagged cynomolgus BCMA on HIS1K tip; R2 0.9501.

The target in assay [4] is T4, cynomolgous macaque BCMA expressed on CHOK1 cells.
T4 construct: also called cyno BCMA on cells
The experiment in a line: flow cytometry, CHOK1 cells transiently expressing cynomolgus BCMA. Background: A flow cytometer gives signals particle by particle.

Assay [5] addresses T5, His-tagged mouse BCMA (Acro Biosystems, BCA-M52H3) (mouse, UniProt O88472 1-49).
T5 construct: Bought protein; not shown: His tag
T5 chain: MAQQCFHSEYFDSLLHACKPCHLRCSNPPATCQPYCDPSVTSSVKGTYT
Kind of assay: BLI, His-tagged mouse BCMA on HIS1K tip; R2 0.9322.

For assay [6], the target named is T5, His-tagged mouse BCMA (Acro Biosystems, …). The experiment in a line: BLI, His-tagged mouse BCMA on HIS1K tip.
Assay [7] addresses T3, His-tagged cynomolgous macaque BCMA …. The experiment in a line: BLI, His-tagged cynomolgus BCMA on HIS1K tip.
For assay [8], the target named is T2, His-tagged human BCMA (Acro Biosystems, …). The experiment in a line: BLI, His-tagged human BCMA on HIS1K tip; R2 0.9901.
Assay [9] shares this target. Kind of assay: BLI, His-tagged human BCMA on HIS1K tip.
Assay [10] shares this target. Kind of assay: BLI, His-tagged human BCMA on HIS1K tip; R2 0.9973.
Assay [11] addresses T3, His-tagged cynomolgous macaque BCMA …. Kind of assay: ELISA, coated His-tagged cynomolgus BCMA. In general terms: An ELISA detects its analyte on a solid surface through an enzyme-linked reagent.
Assay [12] has the same target. Kind of assay: BLI, His-tagged cynomolgus BCMA on HIS1K tip; R2 0.9625.
Assay [13] has as its target T6, recombinant his-tagged human TACI (Sinobiological cat #11937-H08H) (human, UniProt O14836 1-165).
T6 construct: Bought protein; also called Human TACI-His; huTACI; not shown: His tag
T6 sequence: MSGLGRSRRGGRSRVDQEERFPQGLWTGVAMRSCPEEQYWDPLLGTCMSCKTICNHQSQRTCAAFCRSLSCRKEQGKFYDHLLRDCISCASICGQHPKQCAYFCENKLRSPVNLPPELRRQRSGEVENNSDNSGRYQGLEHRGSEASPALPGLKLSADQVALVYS
Kind of assay: ELISA, coated His-tagged human TACI.

Assay [14] deals with T1, human BCMA expressed on cells. The experiment in a line: flow cytometry, HEK293 cells stably expressing human BCMA.
In assay [15] the target is T7, human TACI expressed on cells (human, UniProt O14836 1-293).
T7 construct: also called wildtype human TACI
T7 sequence: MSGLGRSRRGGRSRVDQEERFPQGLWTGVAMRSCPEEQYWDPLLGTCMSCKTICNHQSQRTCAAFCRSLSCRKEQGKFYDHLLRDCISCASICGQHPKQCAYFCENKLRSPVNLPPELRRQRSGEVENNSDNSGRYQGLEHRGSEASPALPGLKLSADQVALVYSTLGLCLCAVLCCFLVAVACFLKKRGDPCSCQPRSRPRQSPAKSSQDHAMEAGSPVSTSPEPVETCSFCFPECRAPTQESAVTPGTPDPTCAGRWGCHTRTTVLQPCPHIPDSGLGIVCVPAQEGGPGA
Kind of assay: flow cytometry, HEK 293 cells expressing human TACI.

For assay [16], the target named is T2, His-tagged human BCMA (Acro Biosystems, …). Kind of assay: ELISA, coated His-tagged human BCMA.
Assay [17] has as its target T1, human BCMA expressed on cells. Kind of assay: flow cytometry, HEK 293 cells expressing human BCMA.
The target of assay [18] is T2, His-tagged human BCMA (Acro Biosystems, …). Kind of assay: BLI, His-tagged human BCMA on HIS1K tip, no APRIL; R2 0.9919.
The target in assay [19] is T6, recombinant his-tagged human TACI …. The experiment in a line: ELISA, coated His-tagged human TACI. This is another data set of the same source.
In assay [20] the target is T3, His-tagged cynomolgous macaque BCMA …. The experiment in a line: BLI, His-tagged cynomolgus BCMA on HIS1K tip; R2 0.9022.
The target in assay [21] is T4, cynomolgous macaque BCMA expressed on …. Kind of assay: flow cytometry, CHOK1 cells transiently expressing cynomolgus BCMA. This is another data set of the same source.
Assay [22] concerns the target T1, human BCMA expressed on cells. Kind of assay: flow cytometry, HEK293 cells stably expressing human BCMA. The source holds these as a separate data set.
Assay [23] addresses T2, His-tagged human BCMA (Acro Biosystems, …). Kind of assay: ELISA, coated His-tagged human BCMA. The source holds these as a separate data set.
Assay [24] deals with T8, BCMA Mut (human, UniProt Q02223 1-184).
T8 construct: Expressed on HEK293T cells; also called human BCMA comprising the substitutions Y13A, D15A, L17G and L18G
T8 chain: T1 sequence with Y13A, D15A, L17G, L18G
The experiment in a line: flow cytometry on HEK293T cells expressing BCMA Mut.

The target in assay [25] is T1, human BCMA expressed on cells. The experiment in a line: flow cytometry, H929 cells (BCMA-expressing). This is another data set of the same source.
For assay [26], the target named is T5, His-tagged mouse BCMA (Acro Biosystems, …). The experiment in a line: BLI, His-tagged mouse BCMA on HIS1K tip; R2 0.9686.
The target in assay [27] is T6, recombinant his-tagged human TACI …. Kind of assay: ELISA, coated His-tagged human TACI. The source holds these as a separate data set.
In assay [28] the target is T2, His-tagged human BCMA (Acro Biosystems, …). Kind of assay: competition ELISA: His-tagged human BCMA binding to coated APRIL-Fc in the presence of the antibody.
Assay [29] shares this target. Kind of assay: BLI, His-tagged human BCMA on HIS1K tip; R2 0.9919.

B1: 539-SP5-D7 hIgG1 (antibody, V domains shown)
VH: EVMLVDSGGNLVKPGGSLKLSCAASGFTFSNYVISWVRQTPEKRLEWVATISTVGTNTYYPDSVRGRFTISRDNAENTLYLQMSSLRSEDTAIYYCSRHKYGYDDPSYAMDYWGQGTSVTVSS
VL: QLVLTQSSSASFSLGASAKLTCTLSSQHSTYTIEWYQQQPLKPPKYVMELKKDGSHSTGDGIPDRFSGSSSGADRYLSISNIQAEDEAIYICGVGDTVKEQFVYVFGGGTKVTVLG
notes: Human-mouse chimeric antibody, human IgG1 format, lambda light chain; also called [4]
Regarding B1, the “EC50 (read off the curve)” value in assay [1] was around 0.3 µg/mL. Also, the Kd is below 0.001 nM in assay [2], 167 nM in [3], 4.86 nM in [5] and below 0.001 nM in assay [8]. The binding result in [4] is “binds”. For the same molecule, the “Mouse BCMA response” value in assay [6] worked out at 1.01. Also, the “Cyno BCMA response” value in assay [7] was found to be 0.265. The “Human BCMA response” value in assay [9] came out at 2.14.

B2: 552-LN2-F8 hIgG1 (antibody, V domains shown)
VH: QIQLVQSGPELKKPGETVKISCKASGYTFTDYTMYWVKQAPGKGLKWMGWINTETGEPTYADDFKGRFVFSLETSANTAYLQINNLKNEDTATYFCAISYYYGMDYWGQGTSVTVTS
VL: DIILTQSPASLAVSLGQRATITCRASKSVSTSGYNFVYWYQQKPGQPPKLLIYLASNLESGVPARFSGSGSGTDFTLNIHPVEEEDAATYYCQHSRELPRTFGGGTKLEIKR
notes: Human-mouse chimeric antibody, human IgG1 format; also called [9]
Consider B2, for which the values for the dissociation constant Kd in assay [10], in assay [2] and in [12] were below 0.001 nM, below 0.001 nM and 59.8 nM, respectively. In addition, the “EC50 (read off the curve)” value is around 0.1 µg/mL in assay [1], around 0.08 µg/mL in assay [11] and around 0.5 µg/mL in assay [14]. Besides, the binding result is given as “binds” in assay [4] and “no binding (tested: 10 ug/ml)” in [13]. Also, in assay [7], the “Cyno BCMA response” value was found to be 1.58. In addition, the “Human BCMA response” value in assay [9] stood at 2.31.

B3: 538-SP5-B10 hIgG1 (antibody, V domains shown)
VH: EVQLQQSGPELVKPGASVKMSCKASGYTFTSYVMHWVKQKPGRGLEWIAYILPFNDVTKYNEKFKGKATLTSDKSSNTAYMELSSLTSEDSAVYYCARWEWDDGYFDYWGQGTTLTVSS
VL: DAVMTQTPLSLPVSLGDQASISCRSSQSLENSNGNTYLNWYLQKPGQSPQLLIYRVSNRFSGVLDRFSGSGSGTDFTLKISRVEAEDLGVYFCLQVSHVPFTFGAGTKLELKR
notes: Human-mouse chimeric antibody, human IgG1 format
For the molecule B3, the EC50 turned out to be 24.1 nM in assay [15], 0.21 nM in [17], 0.085 nM in assay [23] and 2.53 nM in assay [27]. Moreover, the “EC50 (read off the curve)” value was around 0.01 µg/mL in assay [16]; around 0.03 µg/mL in assay [1]; around 0.4 µg/mL in assay [19]; around 0.03 µg/mL in assay [22]; around 1 nM in [25]. For the same molecule, the Kd in assay [18] is below 0.001 nM; in assay [20] it was 31.4 nM; in [26], 47.5 nM; in assay [29], below 0.001 nM. The binding result is given as “binds” in assay [21] and “no binding” in [24]. In assay [6], the “Mouse BCMA response” value came out at 1.31. Also, the “Cyno BCMA response” value in assay [7] was found to be 0.895. In addition, in assay [28], the IC50 turned out to be 0.39 nM. For the same molecule, the “Human BCMA response” value in [9] worked out at 2.35.

For orientation: EC50 (read off the curve) means the concentration needed to bring the measured effect to its halfway point. What is called Kd is a measure of binding affinity in units of concentration. Low readings indicate tighter binding, high ones weaker binding. Broadly, the EC50 is the concentration giving half of the maximal effect. For orientation: IC50 means the concentration that gives 50% inhibition.
